Assay results from patent US20240181075A1 (EMERGENCE THERAPEUTICS, published 2024).
One block for each binder: values may come before it.

Legend:
[1] = target: T1, human Nectin-4 on cells (CHO cells transfected with human Nectin-4 cDNA); SUM190 tumor cells; normal … (human, UniProt Q96NY8 32-510); assay: flow cytometry on normal differentiated human keratinocytes (NHEK); reference antibody of the comparison
T1 construct: whole, on cells; The cell type that carried it is named under assay in each row; also called PVRL4; PRR4
T1 sequence (looked up): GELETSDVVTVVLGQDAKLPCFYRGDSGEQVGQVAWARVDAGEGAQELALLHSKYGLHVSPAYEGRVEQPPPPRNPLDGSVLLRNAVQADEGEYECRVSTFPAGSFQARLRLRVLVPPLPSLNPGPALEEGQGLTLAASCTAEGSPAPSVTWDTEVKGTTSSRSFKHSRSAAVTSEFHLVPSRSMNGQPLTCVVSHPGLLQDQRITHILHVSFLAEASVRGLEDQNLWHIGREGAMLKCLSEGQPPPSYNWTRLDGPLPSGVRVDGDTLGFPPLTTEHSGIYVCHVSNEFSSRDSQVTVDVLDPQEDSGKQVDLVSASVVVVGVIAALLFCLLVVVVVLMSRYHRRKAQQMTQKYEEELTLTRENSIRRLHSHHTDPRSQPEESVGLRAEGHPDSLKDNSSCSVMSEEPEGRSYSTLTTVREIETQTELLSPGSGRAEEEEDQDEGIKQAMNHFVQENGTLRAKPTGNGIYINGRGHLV

[2] = target: T2, human Nectin-4 with N-terminal Flag epitope tag, expressed on transfected MDA-MB231 cells (human, UniProt Q96NY8 32-510); assay: flow cytometry on MDA-MB231 cells transfected with N-terminal Flag-tagged Nectin-4, anti-human Fc PE detection
T2 construct: whole, on cells; also called PVRL4 cDNA in p3XFLR4.C1
T2 sequence (looked up): T1 sequence (looked up)
Excerpt: Detection by flow cytometry. [0431] […] Cells were then stained with phycoerythrin conjugate goat anti human Fc antibody. The normalized mean fluorescence intensity is shown. […] Mean fluorescence intensity is represented.

[3] = target: T3, Nectin-4 extracellular domain Fc fusion recombinant protein (Nec4-VCC) (human, UniProt Q96NY8 32-349); assay: statement in the legend of the competition ELISA on coated Nec4-VCC
T3 construct: extracellular domain; also called Nectin-4-VCC-Fc; not shown: Fc part
T3 sequence (looked up): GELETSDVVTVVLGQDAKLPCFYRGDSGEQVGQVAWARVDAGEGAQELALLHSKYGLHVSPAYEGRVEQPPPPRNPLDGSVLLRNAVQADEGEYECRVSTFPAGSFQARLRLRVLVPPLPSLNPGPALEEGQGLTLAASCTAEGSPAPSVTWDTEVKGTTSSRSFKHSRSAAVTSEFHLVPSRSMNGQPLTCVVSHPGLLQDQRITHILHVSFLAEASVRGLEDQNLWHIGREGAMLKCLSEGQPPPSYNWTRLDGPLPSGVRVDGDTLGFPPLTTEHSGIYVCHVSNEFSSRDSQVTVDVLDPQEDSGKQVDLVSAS
Description: Competition assay was performed by ELISA. [0435] Ninety-six-wells plates were coated with 5 μg/mL of Nectin-4 extracellular domain Fc fusion recombinant protein (Nec4-VCC) overnight at 4° C.
(§1) One hundred μL of peroxidase substrate was added (One Step ABST, Pierce), and OD was red at 405 nm.

[4] = target: T4, Nectin-1 extracellular domain Fc fusion recombinant protein (Nec1-VCC) (UniProt Q15223 31-355, limits assumed); assay: ELISA, plate coated with Nec1-VCC Fc fusion protein
T4 construct: extracellular domain; also called Nectin-1-VCC-Fc; not shown: Fc part
T4 sequence (looked up): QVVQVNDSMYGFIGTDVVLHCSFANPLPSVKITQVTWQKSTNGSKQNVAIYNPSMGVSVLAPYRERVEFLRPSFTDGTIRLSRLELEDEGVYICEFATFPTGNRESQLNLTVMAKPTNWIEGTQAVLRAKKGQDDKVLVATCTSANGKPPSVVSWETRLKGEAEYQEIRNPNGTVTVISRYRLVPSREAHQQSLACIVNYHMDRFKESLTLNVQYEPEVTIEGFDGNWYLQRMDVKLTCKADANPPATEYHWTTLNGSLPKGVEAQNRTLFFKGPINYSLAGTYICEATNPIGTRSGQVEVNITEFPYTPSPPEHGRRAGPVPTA
Description: (§2) Detection by ELISA. [0433]
as §1

[5] = target: T5, Nectin-4 IgV-like domain Fc fusion recombinant protein (Nec4-V) (human, UniProt Q96NY8 32-146, limits assumed); assay: ELISA, plate coated with Nec4-V Fc fusion, peroxidase-conjugated antibody
T5 construct: domain: IgV-like domain; also called Nectin-4-V-Fc; not shown: Fc part
T5 sequence (looked up): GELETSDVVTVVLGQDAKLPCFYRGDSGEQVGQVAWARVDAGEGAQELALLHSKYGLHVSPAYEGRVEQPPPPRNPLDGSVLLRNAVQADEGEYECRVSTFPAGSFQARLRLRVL
Description: as §2, §1

[6] = target: T3, Nectin-4 extracellular domain Fc fusion …; assay: ELISA, plate coated with Nec4-VCC Fc fusion, peroxidase-conjugated antibody
Description: as §2, §1

[7] = target: T1, human Nectin-4 on cells (CHO cells …); assay: flow cytometry on normal differentiated human keratinocytes (NHEK), compared with SUM190 tumor cells

binding result [1]: binds
binding result [2]: binds
B1: Ch-5A12.2 (chimeric anti-Nectin-4 monoclonal antibody 5A12.2) (antibody, V domains shown)
VH: QIQLQQSGAELVKPGASVTLSCKTSGFTFNSMYISWLKQKPGQSLEWIAWIYAGTGGTRFNQKFTGKVQLTVDTSSSTAYMQFSSLTTDDSAIYYCAIRSGFVPMDYWGQGTSVTVSS
VL: SIVMTQTPKFLLVSAGDRVTITCKASQSVSNDVAWYQQKPGQSPKLLIYYASNRYTGVPDRFTGSGYGTDFTFTISTVQAEDLAVYFCQQDYSSPWTFGGGTKLEIK
notes: also called Ch-5A12.2 mAb; 5A12.2 mAb

binding result [3]: binds
B2: HA22 (Enfortumab), human monoclonal anti-Nectin-4 antibody (antibody, V domains shown)
VH: EVQLVESGGGLVQPGGSLRLSCAASGFTFSSYNMNWVRQAPGKGLEWVSYISSSSSTIYYADSVKGRFTISRDNAKNSLSLQMNSLRDEDTAVYYCARAYYYGMDVWGQGTTVTVSS
VL: DIQMTQSPSSVSASVGDRVTITCRASQGISGWLAWYQQKPGKAPKFLIYAASTLQSGVPSRFSGSGSGTDFTLTISSLQPEDFATYYCQQANSFPPTFGGGTKVEIK
notes: also called Enfortumab (HA22); HA22 mAb

binding result [4]: no binding
binding result [5]: binds
binding result [6]: binds
binding result [7]: binds
binding result [2]: binds
B3: Ch-15A7.5 (chimeric anti-Nectin-4 monoclonal antibody 15A7.5) (antibody, V domains shown)
VH: EVKLVESGGGLVQPGGSRKLSCAASGFTFSNYGMAWVRQAPGKGPEWVAFISNLAYGINYADTVTGRFTISRENAKNTLYLEMRSLRSEDTAMYYCARGARATGWFAYWGQGTLVTVSA
VL: DIVMTQSQKFMSTSIGDRVSVTCKASQNVDTHVAWYQEKPGQSPKALIYSASYRYSGVPDRFTGSGSGTDFTLTISNVQSEDLADYFCQQYNSYPLTFGGGTKLEIK
notes: also called Ch-15A7.5 mAb; Ch-15A7 mAb
